7 variants from IntAct's records for PubMed 19731236 can be followed below.

First the molecules themselves.
B1: Phospholipid-transporting ATPase IC (Homo sapiens), O43520 (parent)
chain: MSTERDSETTFDEDSQPNDEVVPYSDDETEDELDDQGSAVEPEQNRVNREAEENREPFRKECTWQVKANDRKYHEQPHFMNTKFLCIKESKYANNAIKTYKYNAFTFIPMNLFEQFKRAANLYFLALLILQAVPQISTLAWYTTLVPLLVVLGVTAIKDLVDDVARHKMDKEINNRTCEVIKDGRFKVAKWKEIQVGDVIRLKKNDFVPADILLLSSSEPNSLCYVETAELDGETNLKFKMSLEITDQYLQREDTLATFDGFIECEEPNNRLDKFTGTLFWRNTSFPLDADKILLRGCVIRNTDFCHGLVIFAGADTKIMKNSGKTRFKRTKIDYLMNYMVYTIFVVLILLSAGLAIGHAYWEAQVGNSSWYLYDGEDDTPSYRGFLIFWGYIIVLNTMVPISLYVSVEVIRLGQSHFINWDLQMYYAEKDTPAKARTTTLNEQLGQIHYIFSDKTGTLTQNIMTFKKCCINGQIYGDHRDASQHNHNKIEQVDFSWNTYADGKLAFYDHYLIEQIQSGKEPEVRQFFFLLAVCHTVMVDRTDGQLNYQAASPDEGALVNAARNFGFAFLARTQNTITISELGTERTYNVLAILDFNSDRKRMSIIVRTPEGNIKLYCKGADTVIYERLHRMNPTKQETQDALDIFANETLRTLCLCYKEIEEKEFTEWNKKFMAASVASTNRDEALDKVYEEIEKDLILLGATAIEDKLQDGVPETISKLAKADIKIWVLTGDKKETAENIGFACELLTEDTTICYGEDINSLLHARMENQRNRGGVYAKFAPPVQESFFPPGGNRALIITGSWLNEILLEKKTKRNKILKLKFPRTEEERRMRTQSKRRLEAKKEQRQKNFVDLACECSAVICCRVTPKQKAMVVDLVKRYKKAITLAIGDGANDVNMIKTAHIGVGISGQEGMQAVMSSDYSFAQFRYLQRLLLVHGRWSYIRMCKFLRYFFYKNFAFTLVHFWYSFFNGYSAQTAYEDWFITLYNVLYTSLPVLLMGLLDQDVSDKLSLRFPGLYIVGQRDLLFNYKRFFVSLLHGVLTSMILFFIPLGAYLQTVGQDGEAPSDYQSFAVTIASALVITVNFQIGLDTSYWTFVNAFSIFGSIALYFGIMFDFHSAGIHVLFPSAFQFTGTASNALRQPYIWLTIILAVAVCLLPVVAIRFLSMTIWPSESDKIQKHRKRLKAEEQWQRRQQVFRRGVSTRRSAYAFSHQRGYADLISSGRSIRKKRSPLDAIVADGTAEYRRTGDS
partner: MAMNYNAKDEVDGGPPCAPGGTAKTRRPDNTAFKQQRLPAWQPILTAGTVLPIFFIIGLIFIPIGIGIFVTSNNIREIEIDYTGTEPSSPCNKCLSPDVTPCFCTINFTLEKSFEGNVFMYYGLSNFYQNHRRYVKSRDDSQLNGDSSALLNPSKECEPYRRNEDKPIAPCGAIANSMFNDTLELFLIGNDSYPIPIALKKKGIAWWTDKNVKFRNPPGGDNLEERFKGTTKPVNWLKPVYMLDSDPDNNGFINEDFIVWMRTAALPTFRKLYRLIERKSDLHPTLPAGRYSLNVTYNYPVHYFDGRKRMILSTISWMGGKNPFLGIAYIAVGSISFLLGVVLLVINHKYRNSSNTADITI

Variants of B1 are the subject of this assay. The conditions noted are these: with cc50a_human TMEM30A.
For the variant R867C, the “effect of a mutation on the interaction” value is “decreasing interaction”.

Regarding D454A, the “effect of a mutation on the interaction” value is “disrupting interaction”.

As to D70N, the “effect of a mutation on the interaction” value is listed as “decreasing interaction”.

In the case of G1040R, the “effect of a mutation on the interaction” value is recorded as “decreasing interaction”.

Take I661T: the “effect of a mutation on the interaction” value is “decreasing interaction”.

For G308V, the “effect of a mutation on the interaction” value was “disrupting interaction”.

As to D554N, the “effect of a mutation on the interaction” value is recorded as “disrupting interaction”.
